We go through four proteins from patent publication US8410064B2, “Classical cannabinoid metabolites and methods of use thereof” (priority 2009, dated 2013).

Broadly, the Km is the substrate concentration at which the rate is half of its maximum. As a reminder, the Vmax is the rate approached at saturating substrate.

Substrate in the data set: CCCCCc1cc(O)c2c(c1)OC(C)(C)c1ccc(C)cc1-2
In words: cells, lysate or membranes named. The note with it: UDP-GlcUA 4 mM, 37° C., 30 min, TLC, pH 7.4.

The mark [1] stands for this setting: other: UGT1A8, 5 μg membrane protein.
The mark [2] stands for this setting: other: UGT1A7, 5 μg membrane protein.
The mark [3] stands for this setting: other: UGT1A9, 5 μg membrane protein.
The mark [4] stands for this setting: other: UGT1A10, 5 μg membrane protein.

B1: recombinant human UGT1A8 (Homo sapiens) (protein)
chain: GKLLVVPMDGSHWFTMQSVVEKLILRGHEVVVVMPEVSWQLGKSLNCTVKTYSTSYTLEDLDREFMDFADAQWKAQVRSLFSLFLSSSNGFFNLFFSHCRSLFNDRKLVEYLKESSFDAVFLDPFDACGLIVAKYFSLPSVVFARGIACHYLEEGAQCPAPLSYVPRILLGFSDAMTFKERVRNHIMHLEEHLFCQYFSKNALEIASEILQTPVTAYDLYSHTSIWLLRTDFVLDYPKPVMPNMIFIGGINCHQGKPLPMEFEAYINASGEHGIVVFSLGSMVSEIPEKKAMAIADALGKIPQTVLWRYTGTRPSNLANNTILVKWLPQNDLLGHPMTRAFITHAGSHGVYESICNGVPMVMMPLFGDQMDNAKRMETKGAGVTLNVLEMTSEDLENALKAVINDKSYKENIMRLSSLHKDRPVEPLDLAVFWVEFVMRHKGAPHLRPAAHDLTWYQYHSLDVIGFLLAVVLTVAFITFKCCAYGYRKCLGKKGRVKKAHKSKTH
For the protein B1, under setting [1], the Michaelis-Menten constant (Km) turned out to be 44 ± 8.1 µM and the Vmax is 0.00049 µmol/min/mg.

B2: recombinant human UGT1A7 (Homo sapiens) (protein)
chain: GKLLVVPMDGSHWFTMQSVVEKLILRGHEVVVVMPEVSWQLGRSLNCTVKTYSTSYTLEDQDREFMVFADARWTAPLRSAFSLLTSSSNGIFDLFFSNCRSLFNDRKLVEYLKESCFDAVFLDPFDACGLIVAKYFSLPSVVFARGIFCHYLEEGAQCPAPLSYVPRLLLGFSDAMTFKERVWNHIMHLEEHLFCPYFFKNVLEIASEILQTPVTAYDLYSHTSIWLLRTDFVLEYPKPVMPNMIFIGGINCHQGKPVPMEFEAYINASGEHGIVVFSLGSMVSEIPEKKAMAIADALGKIPQTVLWRYTGTRPSNLANNTILVKWLPQNDLLGHPMTRAFITHAGSHGVYESICNGVPMVMMPLFGDQMDNAKRMETKGAGVTLNVLEMTSEDLENALKAVINDKSYKENIMRLSSLHKDRPVEPLDLAVFWVEFVMRHKGAPHLRPAAHDLTWYQYHSLDVIGFLLAVVLTVAFITFKCCAYGYRKCLGKKGRVKKAHKSKTH
Regarding B2, under setting [2], the Km was 19 ± 3.9 µM and the maximal velocity (Vmax) worked out at 0.00024 µmol/min/mg.

B3: recombinant human UGT1A9 (Homo sapiens) (protein)
chain: GKLLVVPMDGSHWFTMRSVVEKLILRGHEVVVVMPEVSWQLGRSLNCTVKTYSTSYTLEDLDREFKAFAHAQWKAQVRSIYSLLMGSYNDIFDLFFSNCRSLFKDKKLVEYLKESSFDAVFLDPFDNCGLIVAKYFSLPSVVFARGILCHYLEEGAQCPAPLSYVPRILLGFSDAMTFKERVRNHIMHLEEHLLCHRFFKNALEIASEILQTPVTEYDLYSHTSIWLLRTDFVLDYPKPVMPNMIFIGGINCHQGKPLPMEFEAYINASGEHGIVVFSLGSMVSEIPEKKAMAIADALGKIPQTVLWRYTGTRPSNLANNTILVKWLPQNDLLGHPMTRAFITHAGSHGVYESICNGVPMVMMPLFGDQMDNAKRMETKGAGVTLNVLEMTSEDLENALKAVINDKSYKENIMRLSSLHKDRPVEPLDLAVFWVEFVMRHKGAPHLRPAAHDLTWYQYHSLDVIGFLLAVVLTVAFITFKCCAYGYRKCLGKKGRVKKAHKSKTH
On to B3, for which, under setting [3], the Km stood at 3.4 ± 1.3 µM and the maximal velocity (Vmax) came to 0.0001 µmol/min/mg.

B4: recombinant human UGT1A10 (Homo sapiens) (protein)
chain: GKLLVVPMDGSHWFTMQSVVEKLILRGHEVVVVMPEVSWQLERSLNCTVKTYSTSYTLEDQNREFMVFAHAQWKAQAQSIFSLLMSSSSGFLDLFFSHCRSLFNDRKLVEYLKESSFDAVFLDPFDTCGLIVAKYFSLPSVVFTRGIFCHHLEEGAQCPAPLSYVPNDLLGFSDAMTFKERVWNHIVHLEDHLFCQYLFRNALEIASEILQTPVTAYDLYSHTSIWLLRTDFVLDYPKPVMPNMIFIGGINCHQGKPLPMEFEAYINASGEHGIVVFSLGSMVSEIPEKKAMAIADALGKIPQTVLWRYTGTRPSNLANNTILVKWLPQNDLLGHPMTRAFITHAGSHGVYESICNGVPMVMMPLFGDQMDNAKRMETKGAGVTLNVLEMTSEDLENALKAVINDKSYKENIMRLSSLHKDRPVEPLDLAVFWVEFVMRHKGAPHLRPAAHDLTWYQYHSLDVIGFLLAVVLTVAFITFKCCAYGYRKCLGKKGRVKKAHKSKTH
With B4, under setting [4], the Km came to 59 ± 10 µM and the Vmax was determined as 0.00091 µmol/min/mg.
